In US20140315185A1, “METHODS AND COMPOSITIONS FOR IMPROVING SPERM FUNCTIONALITY” (ANDROGENIX LTD., priority 2011, published 2014):

B1: cholesterol-PEG5000-FITC-catalase: Bovine catalase covalently labelled with cholesterol-PEG5000-NHS-FITC; 4.0 to 5.4 cholesterol-PEG per catalase monomer (conjugate, UniProt P00432 2-527, looked up)
Catalase: ADNRDPASDQMKHWKEQRAAQKPDVLTTGGGNPVGDKLNSLTVGPRGPLLVQDVVFTDEMAHFDRERIPERVVHAKGAGAFGYFEVTHDITRYSKAKVFEHIGKRTPIAVRFSTVAGESGSADTVRDPRGFAVKFYTEDGNWDLVGNNTPIFFIRDALLFPSFIHSQKRNPQTHLKDPDMVWDFWSLRPESLHQVSFLFSDRGIPDGHRHMNGYGSHTFKLVNANGEAVYCKFHYKTDQGIKNLSVEDAARLAHEDPDYGLRDLFNAIATGNYPSWTLYIQVMTFSEAEIFPFNPFDLTKVWPHGDYPLIPVGKLVLNRNPVNYFAEVEQLAFDPSNMPPGIEPSPDKMLQGRLFAYPDTHRHRLGPNYLQIPVNCPYRARVANYQRDGPMCMMDNQGGAPNYYPNSFSAPEHQPSALEHRTHFSGDVQRFNSANDDNVTQVRTFYLKVLNEEQRKRLCENIAGHLKDAQLFIQKKAVKNFSDVHPEYGSRIQALLDKYNEEKPKNAVHTYVQHGSHLSAREKANL
modifications: cholesterol-PEG5000-FITC label
notes: Bovine catalase covalently labelled with cholesterol-PEG5000-NHS-FITC; 4.0 to 5.4 cholesterol-PEG per catalase monomer
B2: catalase: Bovine catalase (Sigma), used alone without the cholesterol-PEG5000-FITC linker; antioxidant enzyme (protein, listed as Bos taurus)
chain: MADNRDPASDQMKHWKEQRAAQKPDVLTTGGGNPVGDKLNSLTVGPRGPLLVQDVVFTDEMAHFDRERIPERVVHAKGAGAFGYFEVTHDITRYSKAKVFEHIGKRTPIAVRFSTVAGESGSADTVRDPRGFAVKFYTEDGNWDLVGNNTPIFFIRDALLFPSFIHSQKRNPQTHLKDPDMVWDFWSLRPESLHQVSFLFSDRGIPDGHRHMNGYGSHTFKLVNANGEAVYCKFHYKTDQGIKNLSVEDAARLAHEDPDYGLRDLFNAIATGNYPSWTLYIQVMTFSEAEIFPFNPFDLTKVWPHGDYPLIPVGKLVLNRNPVNYFAEVEQLAFDPSNMPPGIEPSPDKMLQGRLFAYPDTHRHRLGPNYLQIPVNCPYRARVANYQRDGPMCMMDNQGGAPNYYPNSFSAPEHQPSALEHRTHFSGDVQRFNSANDDNVTQVRTFYLKVLNEEQRKRLCENIAGHLKDAQLFIQKKAVKNFSDVHPEYGSRIQALLDKYNEEKPKNAVHTYVQHGSHLSAREKANL

Key:
sperm = settings: added in sufficient concentration and simultaneously with the H2O2; cited from earlier work
Jurkat cells = assay: Catalase activity assay of treated Jurkat cells; format: cell-based, human; settings: units per 2.5×10^6 cells; incubated at 37° C. for 30 min, then centrifuged and resuspended
Description: (§1) Recovery of the cholesterol-PEG5000-FITC-catalase was determined by Coomassie staining and catalase activity assay. For the catalase activity assay, 0.5 μl of test samples and serially diluted bovine catalase (Sigma) were placed in a microtitre plate, and incubated with 50 μl of 10 ng/ml of streptavidin-HRP (Biosource) and 50 μl of TMB substrate (Invitrogen) for 5 min. The plate was read at 450 nm on an EnVision plate reader (PerkinElmer) after stopping the reaction with 50 μl of 2 M sulfuric acid. Catalase activity of the test sample was calculated from the standard curve generated with known concentrations of bovine catalase.
Jurkat cells (ATCC, TIB-152; human T lymphocyte cell line) were cultured in RPMI-1640 media with 10% fetal calf serum. For analysis, cells were removed from culture, centrifuged at 700×g for 5 min, the culture media was removed and cells were resuspended at a concentration of 5×10^7 cells/ml in PBS. […] The Jurkat cells were analyzed by both flow cytometry and catalase activity assay.
The catalase activity of the treated Jurkat cells was measured as described in Example 1. 50 μl of 5×10^7 cells/ml of each test sample was analysed in the assay and the catalase activity contained in each of the Jurkat samples was calculated from the standard curve. […]

bovine sperm [1] = assay: Binding of cholesterol-PEG-catalase to sperm, flow cytometry; format: cell-based; settings: sperm incubated with 3 mg/ml conjugate at 37° C. for 30 min, unbound removed on Percoll PLUS
Description: 1.5 ml of bovine sperm in liquid extender was carefully placed on top of 4 ml of 60%_Percoll™ PLUS (GE Healthcare) column, and centrifugated for 20 min at 700×g at 20° C. The resulting purified sperm pellet was resuspended in non-capacitating media (NCM; see Table 2) containing 0.1 mg/ml of BSA to a cell concentration of 5×10^7 ml. 200 μl of the purified sperm was mixed with an equal volume of 3 mg/ml cholesterol-PEG5000-FITC-catalase, and incubated light protected at 37° C. for 30 min. The unbound cholesterol-PEG5000-FITC-catalase was removed by layering 400 μl of sperm/cholesterol-PEG5000-FITC-catalase mixture on the top of 500 μl of 60% Percoll™ PLUS column, followed by centrifugation for 20 min at 700×g at 20° C. The sperm pellet was resuspended in NCM containing 0.1 mg/ml of BSA to a total volume of 400 μl. The binding of cholesterol-PEG5000-FITC-catalase to sperm was analysed by flow cytometry and catalase activity assay. […] The catalase activity of cholesterol-PEG5000-FITC-catalase bound sperm was measured as described in Example 1. 79 units of catalase activity were measured in 2.5×10^6 sperm cells after binding with cholesterol-PEG5000-FITC-catalase, whereas no catalase activity was detected in control sperm without addition of cholesterol-PEG5000-FITC-catalase.

bovine sperm [2] = assay: Catalase activity assay of conjugate-bound sperm; format: cell-based; settings: in 2.5×10^6 sperm cells after binding and removal of unbound conjugate
Description: as §1
1.5 ml of bovine sperm in liquid extender was carefully placed on top of 4 ml of 60%_Percoll™ PLUS (GE Healthcare) column, and centrifugated for 20 min at 700×g at 20° C. […] The binding of cholesterol-PEG5000-FITC-catalase to sperm was analysed by flow cytometry and catalase activity assay. […] The catalase activity of cholesterol-PEG5000-FITC-catalase bound sperm was measured as described in Example 1. 79 units of catalase activity were measured in 2.5×10^6 sperm cells after binding with cholesterol-PEG5000-FITC-catalase, whereas no catalase activity was detected in control sperm without addition of cholesterol-PEG5000-FITC-catalase.

binding to live sperm (Hoechst 33258 negative) (bovine sperm [1])	Molecule	rescue of H2O2-induced loss of motility (sperm)	catalase activity in Jurkat cells (Jurkat cells) [U]	catalase activity of bound sperm (bovine sperm [2]) [units]
	N[C@@H](CCC(=O)N[C@@H](CS)C(=O)NCC(=O)O)C(=O)O [glutathione, reference compound]	able to rescue the loss of motility		
approx. 10 fold over background	B1		66	79
	B2	able to rescue the loss of motility	44	
